The text below walks through data of the supplement of paper PMC5998384.

The subject of series [1] is HeLa Kyoto. The series can be described thus: thermal stability score vs G1/S (z-score of summed log2 fold changes over temperatures); higher = more thermally stable than in G1/S.
Series [2] deals with HeLa Kyoto. The series can be described thus: solubility in G1/S (NP-40 vs SDS abundance) (log2 ratio); higher = more soluble. The note with it: cell cycle stage: G1/S.
Series [3] relates to HeLa Kyoto. Briefly: solubility change mitosis vs G1/S (difference of NP-40 vs SDS log2 ratios) (log2 ratio difference); higher = more soluble in mitosis.
Series [4] relates to HeLa Kyoto. The series can be described thus: melting temperature (median over replicates), in situ; higher = more thermally stable.
The mark [5] stands for this setting: cell cycle stage: early G1 (4.5 h after nocodazole release).
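For melting temperature (median over replicates), in situ in this document: HeLa Kyoto cells synchronized by double thymidine or nocodazole block, proteins quantified by TMT10plex mass spectrometry, three independent biological replicates.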
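For solubility change mitosis vs G1/S (difference of NP-40 vs SDS log2 ratios) in this document: synchronized HeLa Kyoto cells (double thymidine block for G1/S, nocodazole release for mitosis), protein amounts in NP-40 versus SDS lysates quantified by mass spectrometry, three biological replicates.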
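For solubility in G1/S (NP-40 vs SDS abundance) in this document: HeLa Kyoto cells arrested at G1/S by double thymidine block, proteins quantified by TMT10plex mass spectrometry in mild NP-40 versus SDS extracts, three biological replicates.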
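For thermal stability score vs G1/S (z-score of summed log2 fold changes over temperatures) in this document: synchronized HeLa Kyoto cells, proteins quantified by TMT10plex mass spectrometry, three biological replicates, mitosis taken 0.5 h after nocodazole release, G1/S directly after double thymidine block.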

With “MTILTYPFKNLPTASKWALRFSIRPLSCSSQLRAAPAVQTKTKKTLAKPNIRNVVVVDGVRTPFLLSGTSYKDLMPHDLARAALTGLLHRTSVPKEVVDYIIFGTVIQEVKTSNVAREAALGAGFSDKTPAHTVTMACISANQAMTTGVGLIASGQCDVIVAGGVELMSDVPIRHSRKMRKLMLDLNKAKSMGQRLSLISKFRFNFLAPELPAVSEFSTSETMGHSADRLAAAFAVSRLEQDEYALRSHSLAKKAQDEGLLSDVVPFKVPGKDTVTKDNGIRPSSLEQMAKLKPAFIKPYGTVTAANSSFLTDGASAMLIMAEEKALAMGYKPKAYLRDFMYVSQDPKDQLLLGPTYATPKVLEKAGLTMNDIDAFEFHEAFSGQILANFKAMDSDWFAENYMGRKTKVGLPPLEKFNNWGGSLSLGHPFGATGCRLVMAAANRLRKEGGQYGLVAACAAGGQGHAMIVEAYPK [HADHB]”, the thermal stability score was -0.727 in series [1] (setting [5]) and -0.0884 in series [1] (cell cycle stage: mitosis). Moreover, the “solubility in G1/S (log2)” value in series [2] came to 0.274. Besides, the “solubility change mitosis (log2)” value in series [3] was -0.0395. Besides, the melting temperature in series [4] (cell cycle stage: G1/S) and in series [4] (cell cycle stage: mitosis) was 50.7 °C in each case.
With “MTKAGSKGGNLRDKLDGNELDLSLSDLNEVPVKELAALPKATILDLSCNKLTTLPSDFCGLTHLVKLDLSKNKLQQLPADFGRLVNLQHLDLLNNKLVTLPVSFAQLKNLKWLDLKDNPLDPVLAKVAGDCLDEKQCKQCANKVLQHMKAVQADQERERQRRLEVEREAEKKREAKQRAKEAQERELRKREKAEEKERRRKEYDALKAAKREQEKKPKKEANQAPKSKSGSRPRKPPPRKHTRSWAVLKLLLLLLLFGVAGGLVACRVTELQQQPLCTSVNTIYDNAVQGLRRHEILQWVLQTDSQQ [LRRC59]”, the thermal stability score is 2.96 in series [1] (setting [5]) and -1.3 in series [1] (cell cycle stage: mitosis). For the same sequence, in series [2], the “solubility in G1/S (log2)” value was determined as 0.751. The “solubility change mitosis (log2)” value in series [3] was 0.236. Also, the figures for the melting temperature in series [4] (cell cycle stage: G1/S) and in series [4] (cell cycle stage: mitosis) were 56.7 °C and 54 °C, respectively.
For the sequence “MTKFGFLRLSYEKQDTLLKLLILSMAAVLSFSTRLFAVLRFESVIHEFDPYFNYRTTRFLAEEGFYKFHNWFDDRAWYPLGRIIGGTIYPGLMITSAAIYHVLHFFHITIDIRNVCVFLAPLFSSFTTIVTYHLTKELKDAGAGLLAAAMIAVVPGYISRSVAGSYDNEGIAIFCMLLTYYMWIKAVKTGSICWAAKCALAYFYMVSSWGGYVFLINLIPLHVLVLMLTGRFSHRIYVAYCTVYCLGTILSMQISFVGFQPVLSSEHMAAFGVFGLCQIHAFVDYLRSKLNPQQFEVLFRSVISLVGFVLLTVGALLMLTGKISPWTGRFYSLLDPSYAKNNIPIIASVSEHQPTTWSSYYFDLQLLVFMFPVGLYYCFSNLSDARIFIIMYGVTSMYFSAVMVRLMLVLAPVMCILSGIGVSQVLSTYMKNLDISRPDKKSKKQQDSTYPIKNEVASGMILVMAFFLITYTFHSTWVTSEAYSSPSIVLSARGGDGSRIIFDDFREAYYWLRHNTPEDAKVMSWWDYGYQITAMANRTILVDNNTWNNTHISRVGQAMASTEEKAYEIMRELDVSYVLVIFGGLTGYSSDDINKFLWMVRIGGSTDTGKHIKENDYYTPTGEFRVDREGSPVLLNCLMYKMCYYRFGQVYTEAKRPPGFDRVRNAEIGNKDFELDVLEEAYTTEHWLVRIYKVKDLDNRGLSRT [STT3A]”, the values for the thermal stability score in series [1] (setting [5]) and in series [1] (cell cycle stage: mitosis) were 1.3 and 3.3, respectively. For the same sequence, the “solubility in G1/S (log2)” value in series [2] was -0.102. The “solubility change mitosis (log2)” value in series [3] is -0.105. In addition, the melting temperature in series [4] (cell cycle stage: G1/S) was found to be 53.7 °C; in series [4] (cell cycle stage: mitosis), 54 °C.
As to “MTLESIMACCLSEEAKEARRINDEIERQLRRDKRDARRELKLLLLGTGESGKSTFIKQMRIIHGSGYSDEDKRGFTKLVYQNIFTAMQAMIRAMDTLKIPYKYEHNKAHAQLVREVDVEKVSAFENPYVDAIKSLWNDPGIQECYDRRREYQLSDSTKYYLNDLDRVADPAYLPTQQDVLRVRVPTTGIIEYPFDLQSVIFRMVDVGGQRSERRKWIHCFENVTSIMFLVALSEYDQVLVESDNENRMEESKALFRTIITYPWFQNSSVILFLNKKDLLEEKIMYSHLVDYFPEYDGPQRDAQAAREFILKMFVDLNPDSDKIIYSHFTCATDTENIRFVFAAVKDTILQLNLKEYNLV [GNAQ]”, the thermal stability score in series [1] (setting [5]) was -0.77; in series [1] (cell cycle stage: mitosis), -0.236. Further, the “solubility in G1/S (log2)” value in series [2] was -0.282. For the same sequence, in series [3], the “solubility change mitosis (log2)” value was -0.0689. The melting temperature in series [4] (cell cycle stage: G1/S) amounted to 54.7 °C; in series [4] (cell cycle stage: mitosis) it was 54.3 °C.
For “MTMDGDSSTTDASQLGISADYIGGSHYVIQPHDDTEDSMNDHEDTNGSKESFREQDIYLPIANVARIMKNAIPQTGKIAKDAKECVQECVSEFISFITSEASERCHQEKRKTINGEDILFAMSTLGFDSYVEPLKLYLQKFREAMKGEKGIGGAVTATDGLSEELTEEAFTNQLPAGLITTDGQQQNVMVYTTSYQQISGVQQIQFS [NFYB]”, the thermal stability score in series [1] (setting [5]) worked out at 0.178; in series [1] (cell cycle stage: mitosis), 0.0131. Besides, the “solubility in G1/S (log2)” value in series [2] is 0.036. Also, the “solubility change mitosis (log2)” value in series [3] came to 0.064. Also, the melting temperature in series [4] (cell cycle stage: G1/S) and in series [4] (cell cycle stage: mitosis) was 54.5 °C each time.
